Format in all cases: in vivo
The test system of series [1] is FoxP3+ CD8 T-cells (TcREG). The series can be described thus: RANKL dose finding: FoxP3+ CD8 T-cells in bone marrow of FoxP3-GFP reporter mice. As to conditions: two consecutive days, 50 hours after first dose, lowest dose 0.125 mg/kg. The method, then: FIGS. 1A, 1B and 1C indicate that TcREG are induced by activated osteoclasis. […] In the absence of RANK L treatment, very low level of conversion was observed after three days. […] ZA was administered intravenously one week prior to adoptive transfer of CD8 T-cells.
It was first determined the dose of RANKL that produced the maximal number FoxP3^+ CD8 T-cells in the bone marrow. RANKL was administered into FoxP3-GFP reporter mice at various doses for two consecutive days. Fifty hours after first dose, the mice were sacrificed and the numbers of CD8 T-cells that were GFP positive cells in the bone marrow were measured. […] The increased levels of FoxP3 in the bone marrow could either be due to recruitment of TcREG to the bone marrow or induction of FoxP3 expression in cells that were FoxP3 negative. To test for induction FACS sorted the GFP negative population of CD8 (Thy 1.2+ that were CD44 negative or naïve) from the spleens and bone marrow to high purity (FIG. 1C first panel) and adoptively transferred them into congenically marked (Thy 1.1) OT-I Rag^−/− mice. […] In the absence of RANKL administration low levels […] CD8 T-cell were detected (FIGS. 1B and C second panel), but RANKL administration (0.125 mg/kg) yielded ˜1% […] Thy 1.2 T-cells (FIGS. 1B and 1C third panel). […]

The subject of the next series is ovariectomized mice. The series is described as follows: Pulsed versus continuous (ALZET pump) RANKL in OVX mice. The method, then:
FIGS. 10A through 10E show the effect of delivering RANKL in pulses as opposed to a continuous exposure leads to its antiresorptive effect. 12 week old mice were treated either as sham-operated or OVX using pumps or pulsed. Two weeks post-surgery ALZET® pumps were implanted in the intraperitoneal cavity that contained either PBS or RANKL as indicated in the plots above. All groups were pulsed with equivalent dose of RANKL (0.125 mg/kg, pulsed twice 24 hrs. apart) or PBS as indicated in the plots. […] In FIG. 10B, Quantification across groups (6 mice/group).

The next series deals with atheroma plaque. The series is described as follows: Male LDLR-/- mice on western diet, pulsed low-dose RANKL. As to conditions: 9 weeks. As to the method:
FIGS. 22 and 23 extend the evaluation of the effect of pulse RANKL treatment to male LDLR mice. Surgery was, unnecessary in this case, so all mice were simply placed on the western diet at 10 weeks of age. Two weeks later one-half of the mice were treated with pulsed low-dose RANKL as contemplated elsewhere herein and the same group was treated again 6 weeks later. Time of treatment is indicated by the arrows in FIG. 22. […] All mice were sacrificed 9 weeks after the start of the experiment and plaque volumes were compared between the two groups.

Entries after “also recorded” stand apart in the source; their conditions may differ.

B1: receptor activator of NF-κB ligand (protein, UniProt O35235 139-316, looked up)
Tumor necrosis factor ligand …: FSGAPAMMEGSWLDVAQRGKPEAQPFAHLTINAASIPSGSHKVTLSSWYHDRGWAKISNMTLSNGKLRVNQDGFYYLYANICFRHHETSGSVPTDYLQLMVYVVKTSIKIPSSHNLMKGGSTKNWSGNSEFHFYSINVGGFFKLRAGEEISIQVSNPSLLDPDQDATYFGAFKVQDID
modifications: GST tag
Consider B1, for which the “proportion of FoxP3+ CD8 T cells in the bone marrow as a function of RANKL dose” value in series [1] is given as “induced the largest proportion of FoxP3^+ CD8 T cells”. Besides, the bone resorption entry in the series on ovariectomized mice (continuous delivery via osmotic pumps) was “led to increased bone resorption”. In the series on ovariectomized mice (continuous exposure by pump, identical dose), the TcREG induction result is on record as “did not induce TcREG; also recorded: No TcREG induction is observed”. Further, the “Bone volume (BV/TV)” value in the series with ovariectomized mice (delivered by pump) is “decreased”. Further, in the series with ovariectomized mice (pulsed), the “Bone volume (BV/TV)” value is listed as “restored to levels observed in sham-operated mice”, the TEFF cells result was “decrease in TEFF cells was only observed in mice pulsed with RANKL” and the bone resorption result is “decreased levels of bone resorption were observed”. Also, the TcREG induction result in the series on ovariectomized mice (pulsed, 0.125 mg/kg twice 24 hrs apart) is reported as “induced TcREG”. Further, in the series on atheroma plaque, the plaque volumes result is listed as “plaque volumes were reduced in the treated group” and the weight gain entry is given as “weight gain in the treated mice was reduced”.

The record behind these values is US10745461B2, “Pulsed introduction of low-dose RANKL as a therapy for diet-induced atherosclerosis” (Saint Louis University, priority 2015, dated 2020).
